This is an account of results in patent publication US20240158475A1.

For assay [1], the target named is DN-III quality control recombinant protein (produced by Fapon Biotech InC.) (dengue virus). Briefly: BLI, AMC sensor, antibody captured.
Assay [2] addresses DN-III-NS antigen (produced by Fapon Biotech InC.) (dengue virus). Nature of the assay: capture ELISA, antibody sample 243-fold dilution.
Assay [3] shares this target. Nature of the assay: capture ELISA, antibody sample 81-fold dilution. (In an ELISA, binding on a coated surface is turned into a signal by an enzyme label.)
The target is the same in assay [4]. Nature of the assay: capture ELISA, antibody sample 27-fold dilution.
Assay [5] has the same target. Nature of the assay: capture ELISA, antibody sample 3-fold dilution.
Assay [6] shares this target. Nature of the assay: capture ELISA (anti-mouse IgG / antibody / antigen / HRP-mAb), antibody sample Original.
Assay [7] shares this target. Briefly: capture ELISA, antibody sample 9-fold dilution.
Assay [8] has the same target. Nature of the assay: capture ELISA, antibody sample 729-fold dilution.

B1: Mutation 1 (antibody, V domains shown)
VH: EVQLQQSGTELVRPGALVKLSCKASGFNIKDYYVHWVKQRPRQGLEWIGWIDPENGKTLYDPKFQDKASITSDTSTNTAYLQLRSLTSEDTAVYYCVTAYVRFVYWGQGTLVTVSA
VL: QIVLTQSPAIMSAFPGERVTMTCSASSSVRYMYWHQQKPGSSPRLLIYDTSNVASGVPVRFSGSGSGTSYSLTISRDEAMDAATYYCQQWSSTPRTFGGGTKLEIKR
As usually defined, the Kd is the free concentration of one partner at which half of the binding sites on the other are occupied at equilibrium, for simple one-to-one binding. Broadly, the koff is the first-order rate constant of dissociation. For orientation: kon means the second-order rate constant of association. On to B1, for which the Kd in assay [1] worked out at 1.07 nM. Besides, in assay [1], the off-rate (koff) was 4.03e-05 s⁻¹. The kon in assay [1] was found to be 37700 M⁻¹ s⁻¹. For the same molecule, the OD450 (ref. 630 nm) in assay [2] was 0.361 OD; in assay [3], 0.918 OD; in assay [4], 1.9 OD; in assay [5], 2.38 OD; in assay [6] it was 2.37 OD; in assay [7] it was 2.29 OD. This molecule registered an OD450 (ref. 630 nm) in assay [8] of 0.188 OD.
